Measurements as given in patent publication CN106467574A (UNIV FUDAN, dated 2017).

How the values were obtained:
[1] = target: 人源TF, 细胞表面TF (human tissue factor on the surface of human tumour cells) (human, UniProt P13726 33-295); experiment: cell-based or functional assay
[2] = target: T1, 鼠源TF (mouse tissue factor on B16-F10 cells) (mouse, UniProt P20352 29-294); experiment: flow cytometry on B16-F10 cells
T1 construct: whole, on cells
T1 sequence (looked up): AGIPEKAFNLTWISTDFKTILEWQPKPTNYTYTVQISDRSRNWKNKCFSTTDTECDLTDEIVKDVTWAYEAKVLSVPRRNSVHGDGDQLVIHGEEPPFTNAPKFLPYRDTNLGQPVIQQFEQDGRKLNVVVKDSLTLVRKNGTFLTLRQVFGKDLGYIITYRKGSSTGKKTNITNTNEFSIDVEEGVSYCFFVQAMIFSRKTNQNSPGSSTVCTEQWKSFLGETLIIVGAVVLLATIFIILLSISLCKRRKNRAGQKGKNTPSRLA

B1: TF-mAb-SC1 (antibody, IgG2b, V domains shown)
VH: QVQLQQPGAELVRPGASVKLSCKASGYSFISYWMNWVKQRPGQGLEWIGMIYPADSETRLNQKFKDKATLTVDKSSSTAYMQLSSPTSEDSAVYYCAREDYGSSDYWGQGTTLTVSS
VL: EILLTQSPAIIAASPGEKVTITCSASSSVSYMNWYLQKPGSSPKIWIYGISNLASGVPARFSGSGSGTSFSFTINSMETEDVATYYCQQKSSFPWTFGGGTKLEIK
notes: Mouse monoclonal antibody from a hybridoma, purified from ascites
- 抗FXa生成活性 IC50 (BxPC-3 cells) [1]: 9 nM
- 抗FXa生成活性 IC50 (MDA-MB-231 cells) [1]: 6.4 nM
- binding result [2]: no binding (tested: 10μg/mL)
